# Measurements: patent publication US20240043489A1, “Cytokine Prodrugs Comprising a Cleavable Linker” (Trutino Biosciences Inc., priority 2020, published 2024)
# Several values for one entry are separate records, joined by “and”; a condition that tells them apart may be missing. Identical values can stand only once.
# What was measured:
# [1] = In vitro serum stability of fusion protein (sandwich ELISA); format: in vitro ADME; conditions: 37C up to 72 h; serum of naive and MC38 tumor bearing C57BL/6 mice
# Procedure: We developed an ELISA assay to detect and quantify fusion proteins comprising IL-2 and IL-2Rα moieties. Wells of a 96-well plate are coated overnight with 100 uL of a rat anti-mouse IL-2 monoclonal antibody (JES6-1A12; ThermoFisher) at […] in PBS. After washing, wells are blocked with TBS/0.05% Tween 20/1% BSA, then fusion proteins and/or unknown biological samples are added for 1 hr at room temperature. After washing, an anti-mouse IL-2Rα biotin-labelled detection antibody (BAF2438, R&D systems) is added and binding is detected using Ultra Strepavidin HRP (ThermoFisher). The ELISA plate was developed by adding the chromogenic tetramethylbenzidine substrate (Ultra TMB, ThermoFisher). The reaction is stopped by addition of 0.5M H2SO4 and the absorbance is read at 450-650 nm.
# Construct B was incubated at 37C for up to 72 h with serum collected from 8 weeks old female C57BL/6 naive and MC38 tumor bearing mice respectively (n=2 per serum type, tumor volume >3000 mm3 at time of collection), in order to examine both non-specific cleavage as well as MMP-specific off-target cleavage. Samples were collected at 0 h, 4 h, 8 h, 24 h, 48 h and 72 h and the intact non-MMP cleaved fusion protein was quantified using an in-house developed sandwich ELISA.
# MMP9 = target: T1, MMP9 (Mus musculus, UniProt P41245); test: Cleavage of fusion protein by MMP9 protease (SDS-PAGE / Western blot); format: biochemical
# T1 construct: purchased R&D Systems
# T1 sequence (P41245 108-730): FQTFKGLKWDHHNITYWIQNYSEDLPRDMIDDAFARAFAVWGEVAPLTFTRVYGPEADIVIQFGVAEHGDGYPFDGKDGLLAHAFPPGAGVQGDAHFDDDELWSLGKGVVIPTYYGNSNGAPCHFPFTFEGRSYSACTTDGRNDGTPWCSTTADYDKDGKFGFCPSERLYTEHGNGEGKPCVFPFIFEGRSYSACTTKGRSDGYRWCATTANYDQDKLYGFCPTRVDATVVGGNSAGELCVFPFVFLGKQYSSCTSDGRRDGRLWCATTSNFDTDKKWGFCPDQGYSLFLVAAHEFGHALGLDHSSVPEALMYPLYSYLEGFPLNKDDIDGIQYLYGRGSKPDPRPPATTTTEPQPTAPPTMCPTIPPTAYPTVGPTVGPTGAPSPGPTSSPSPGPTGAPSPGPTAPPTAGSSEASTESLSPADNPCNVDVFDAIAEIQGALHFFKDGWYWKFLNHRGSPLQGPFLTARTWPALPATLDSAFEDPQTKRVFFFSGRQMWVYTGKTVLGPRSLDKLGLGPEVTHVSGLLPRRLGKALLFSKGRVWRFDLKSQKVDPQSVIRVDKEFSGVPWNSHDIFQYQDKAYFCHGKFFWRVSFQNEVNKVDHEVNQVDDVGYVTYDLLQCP
# Procedure: (§1) Recombinant MMP9 and/or MMP2 (R&D Systems) was first activated with p-aminophenylmercuric acetate and this activated protease or equivalent amount of activating solution without the protease was used to digest or mock digest the fusion protein for 1 hr, 2 hr, 4 hr and overnight (18-22 hr) at 37 C. Cleavage assays are set up in TCNB buffer: 50 mM Tris, 10 mM CaCl2), 150 mM NaCl, 0.05% Brij-35 (w/v), pH 7.5. Digested protein was aliquoted and stored at −80° C. prior to testing. Aliquots of digests were subsequently analyzed by SDS-PAGE followed by Western blotting to evaluate the extent of cleavage. Digests were also assessed in functional assays such as CTLL-2 proliferation and HEK-Blue Interleukin reporter assays. As shown in FIGS. 2A-E, essentially complete cleavage by MMP9 protease of the fusion proteins with functional site is seen after overnight incubation. In contrast, proteins containing a scrambled MMP cleavage site are not cut (FIG. 2E).
# Untreated and digested fusion proteins were evaluated for cleavage products by Western blot. The following monoclonal antibodies were used: rat anti-mouse IL-2 antibody (JES6-1A12; ThermoFisher), goat anti-mouse IL-2 polyclonal antibody (AF-402-NA; R&D systems), mouse anti-6xHis monoclonal antibody (MA1-21315, ThermoFisher), Anti-mIgG Fc HRP conjugated (ThermoFisher cat #A16084), and Anti-human IL2 antibody (Invitrogen, cat #MA5-17097, mouse IgG1). Detection was performed using either a goat anti-rat HRP-conjugated antibody, Donkey Anti-goat HRP-conjugated antibody or Goat Anti-mouse HIRP conjugated (Jackson Immuno Research, West Grove, PA) and developed using the SuperSignal West Femto Maximum sensitivity detection reagent (ThermoFisher) following the manufacturer's recommendations.
# B16F10 melanoma = test: In vivo efficacy of retention linker IL-2 drugs in B16F10 syngeneic model (Example 17); design: species or system mice
# Procedure: (§2) In a first efficacy study, C57BL/6 mice were subcutaneously inoculated with B16F10 melanoma cells and when the average tumor volume reached on average 70-90 mm^3, animals were randomized into 5 groups based on tumor volumes (n=6 mice per treatment group). Mice were dosed intravenously every 3 days (Q3D) for a total of 5 doses according to following design:
# as §2, with “second” for “first”, “study in the same model,” for “study,”
# On Day 20, mice received an additional dose of drug, animals were sacrificed 24 hrs later and tissues and blood (processed to serum) were collected and stored at −80C for further testing. […] This is most likely due to the higher levels of both circulating drugs in serum and resident drug in TME, which can exert prolonged anti-tumor activity even after an extended dosing holiday.
# fibronectin = fibronectin (Homo sapiens, UniProt P02751); test: IL-2 fusion protein plate binding assay to fibronectin
# Chain of fibronectin (P02751 32-2477, species assumed): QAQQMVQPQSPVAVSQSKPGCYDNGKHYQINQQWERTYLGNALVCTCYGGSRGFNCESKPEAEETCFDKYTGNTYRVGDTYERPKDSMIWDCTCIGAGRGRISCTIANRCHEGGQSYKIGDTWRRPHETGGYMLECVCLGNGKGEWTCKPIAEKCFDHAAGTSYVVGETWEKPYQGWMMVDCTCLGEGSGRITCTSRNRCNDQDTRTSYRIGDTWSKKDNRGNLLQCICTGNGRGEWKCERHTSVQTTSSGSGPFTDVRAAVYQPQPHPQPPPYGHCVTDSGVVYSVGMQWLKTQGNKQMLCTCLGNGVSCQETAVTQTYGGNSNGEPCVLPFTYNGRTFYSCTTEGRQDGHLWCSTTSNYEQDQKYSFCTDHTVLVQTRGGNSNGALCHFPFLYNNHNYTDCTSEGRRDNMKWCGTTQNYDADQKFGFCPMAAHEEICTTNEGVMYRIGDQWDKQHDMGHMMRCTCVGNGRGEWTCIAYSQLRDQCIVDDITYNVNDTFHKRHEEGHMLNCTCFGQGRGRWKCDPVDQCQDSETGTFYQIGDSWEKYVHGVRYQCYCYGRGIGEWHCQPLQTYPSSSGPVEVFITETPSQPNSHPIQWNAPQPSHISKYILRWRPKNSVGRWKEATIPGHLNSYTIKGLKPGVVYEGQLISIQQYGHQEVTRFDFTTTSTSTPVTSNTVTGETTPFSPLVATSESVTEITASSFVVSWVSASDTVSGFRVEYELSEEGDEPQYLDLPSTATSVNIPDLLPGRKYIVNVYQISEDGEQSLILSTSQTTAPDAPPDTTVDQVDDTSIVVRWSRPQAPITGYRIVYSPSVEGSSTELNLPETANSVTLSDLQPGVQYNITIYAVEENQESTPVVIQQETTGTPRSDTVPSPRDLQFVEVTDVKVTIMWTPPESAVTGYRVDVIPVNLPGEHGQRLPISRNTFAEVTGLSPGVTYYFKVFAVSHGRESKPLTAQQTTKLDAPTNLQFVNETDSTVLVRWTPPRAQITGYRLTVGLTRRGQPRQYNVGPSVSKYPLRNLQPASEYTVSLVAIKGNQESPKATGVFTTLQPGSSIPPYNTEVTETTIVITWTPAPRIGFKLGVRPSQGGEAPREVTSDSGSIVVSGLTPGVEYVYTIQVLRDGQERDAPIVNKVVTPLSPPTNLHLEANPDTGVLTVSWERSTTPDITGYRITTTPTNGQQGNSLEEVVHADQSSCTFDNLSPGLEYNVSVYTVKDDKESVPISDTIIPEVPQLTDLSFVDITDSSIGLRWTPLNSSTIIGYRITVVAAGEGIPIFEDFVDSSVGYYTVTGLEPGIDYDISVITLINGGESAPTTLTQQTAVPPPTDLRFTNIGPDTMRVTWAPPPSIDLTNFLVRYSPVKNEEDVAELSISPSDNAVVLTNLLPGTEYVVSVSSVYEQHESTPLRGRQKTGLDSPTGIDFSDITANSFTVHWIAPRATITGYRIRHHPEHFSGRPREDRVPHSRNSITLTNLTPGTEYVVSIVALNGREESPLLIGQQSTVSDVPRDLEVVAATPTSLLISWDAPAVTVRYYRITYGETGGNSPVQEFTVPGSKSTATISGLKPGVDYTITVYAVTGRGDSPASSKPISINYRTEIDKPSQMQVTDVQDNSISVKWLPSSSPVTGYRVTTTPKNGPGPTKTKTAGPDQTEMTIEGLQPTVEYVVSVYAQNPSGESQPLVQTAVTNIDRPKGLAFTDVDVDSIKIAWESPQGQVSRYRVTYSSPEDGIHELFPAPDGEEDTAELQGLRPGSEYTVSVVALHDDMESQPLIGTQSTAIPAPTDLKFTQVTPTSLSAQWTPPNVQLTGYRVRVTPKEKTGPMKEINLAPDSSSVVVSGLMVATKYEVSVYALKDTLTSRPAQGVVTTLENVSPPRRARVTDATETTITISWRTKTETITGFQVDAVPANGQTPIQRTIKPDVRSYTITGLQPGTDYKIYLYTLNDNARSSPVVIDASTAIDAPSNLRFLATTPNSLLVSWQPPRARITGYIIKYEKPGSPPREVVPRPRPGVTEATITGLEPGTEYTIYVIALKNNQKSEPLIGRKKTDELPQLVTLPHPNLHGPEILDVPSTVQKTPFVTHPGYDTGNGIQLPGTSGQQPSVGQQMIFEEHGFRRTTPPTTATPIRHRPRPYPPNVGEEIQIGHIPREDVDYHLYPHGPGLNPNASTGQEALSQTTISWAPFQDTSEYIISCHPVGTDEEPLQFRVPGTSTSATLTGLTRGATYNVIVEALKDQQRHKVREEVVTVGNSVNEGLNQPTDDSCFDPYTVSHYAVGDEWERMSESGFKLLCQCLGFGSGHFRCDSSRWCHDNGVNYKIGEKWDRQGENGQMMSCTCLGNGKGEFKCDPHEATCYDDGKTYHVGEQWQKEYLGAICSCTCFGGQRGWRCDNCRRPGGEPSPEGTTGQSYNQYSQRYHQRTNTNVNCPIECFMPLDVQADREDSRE
# Procedure: A similar plate-based assay was developed to interrogate binding of IL-2 fusion variants to fibronectin. 96-well plates were coated with 4 ug/mL of fibronectin (Sigma) or control BSA for 18-22 h at room temperature on shaker (350 rpm). After washing, wells are blocked with protein-free blocking buffer (Pierce) for 90 min, then fusion proteins are titrated in blocking buffer-0.1% Tween 20 pH 7.5 and/or pH 6 and added for 1 hr at room temperature with shaking. After washing, an anti-mouse IL-2 biotin-labelled detection antibody (JES6-5H4, ThermoFisher) is added and binding is detected using Ultra Streptavidin HRP (ThermoFisher). The plate was developed by adding the chromogenic tetramethylbenzidine substrate (Ultra TMB, ThermoFisher). The reaction is stopped by addition of 0.5M H2SO4 and the absorbance is read at 450-650 nm.
# CTLL-2 cells = test: CTLL-2 proliferation assay (MTT); format: cell-based
# Procedure: as §1
# IL-2 activity was measured using either CTLL-2 cells (ATCC) or the reporter cell line HEK Blue IL2 (Invivogen, San Diego). In brief, for the CTLL-2 assay a titration of untreated and digested samples is added to 40 000 CTLL-2 cells per well in 100 ul medium in a 96-well plate and incubated at 37C in 5% CO2 for 18-22 hr. At the end of this period, 50ug/well Thiazolyl Blue Tetrazolium Bromide (MTT) (Sigma-Aldrich) was added and the plate was incubated for 5 hr at 37C in 5% CO2. Cells were lysed with 100 µl/well 10% SDS (Sigma) acidified with HCl, incubated at 37C for 4 hr, and absorbance was read at 570 nm. Recombinant human or mouse IL-2 (Peprotech and R&D systems respectively) was used as a positive control. FIGS. 3A-B, 3K-L and 3N-P show examples of untreated and digested fusion proteins evaluated in CTLL-2 proliferation assay.
molecule,measurement,setting,value
Construct B: SEQ ID NO 101: m IL2-2x(SG4)-MMPcs1-2x(G4S)-IL2Ralpha-mIgG1 Fc (protein) APTSSSTSSSTAEAQQQQQQQQQQQQHLEQLLMDLQELLSRMENYRNLKLPRMLTFKFYLPKQATELKDLQCLEDELGPLRHVLDLTQSKSFQLEDAENFISNIRVTVVKLKGSDNTFECQFDDESATVVDFLRRWIAFCQSIISTSPQSGGGGSGGGGGPLGVRGGGGGSGGGGSELCLYDPPEVPNATFKALSYKNGTILNCECKRGFRRLKELVYMRCLGNSWSSNCQCTSNSHDKSRKQVTAQLEHQKEQQTTTDMQKPTQSMHQENLTGHCREPPPWKHEDSKRIYHFVEGQSVHYECIPGYKALQRGPAISICKMKCGKTGWTQPQLTCVDEREHHRFLASEESQGSRNSSPESETSCPITTTDFPQPTETTAMTETFVLTMEYKGCKPCICTVPEVSSVFIFPPKPKDVLTITLTPKVTCVVVDISKDDPEVQFSWFVDDVEVHTAQTQPREEQFNSTFRSVSELPIMHQDWLNGKEFKCRVNSAAFPAPIEKTISKTKGRPKAPQVYTIPPPKEQMAKDKVSLTCMITDFFPEDITVEWQWNGQPAENYKNTQPIMDTDGSYFVYSKLNVQKSNWEAGNTFTCSVLHEGLHNHHTEKSLSHSPGK,stability of intact fusion protein in serum,[1],stable
same,full-length cytokine prodrug remaining,MMP9; 20 hour +MMP time point,only a faint band
same,time at which cleavage product was detectable,"MMP9; +MMP-9 digestion, Western blot",1 h
same,TGI (%) D 15,"B16F10 melanoma; 10 mg/kg IV Q3D, 5 doses",27% and 27.43%
same,efficacy after a dosing holiday of 7 days,"B16F10 melanoma; 10 mg/kg, Day 20",diminished efficacy
same,TGI (%) D 20,"B16F10 melanoma; 10 mg/kg, 7 days following the fifth dose",14.02%
same,TGI (%) D 13,"B16F10 melanoma; 20 mg/kg IV Q3D, 5 doses",61% and 61.43%
same,TGI (%) D 13,"B16F10 melanoma; 40 mg/kg IV Q3D, 5 doses",58.44%
same,TGI,B16F10 melanoma; Construct B treated groups regardless of dose (20 and 40 mg/kg),~60%
same,fibronectin binding at acidic pH,fibronectin; pH 6,No significant binding
same,fibronectin binding at pH 7.5,fibronectin; pH 7.5 (neutral),No significant binding
same,"CTLL-2 cell proliferation, MMP-9 treated construct",CTLL-2 cells; cleaved by MMP-9,stimulates CTLL-2 cell proliferation in a dose dependent manner
same,"CTLL-2 cell proliferation, uncleaved construct",CTLL-2 cells; uncleaved,minimally stimulatory
